{
  "source": "patent US20050136004A1",
  "about": "(ZymoGenetics, published 2005)",
  "binders": {"B1": {"name": "human IL-20-Bv (purified mature recombinant human IL-20 produced in Baculovirus) (ligand)", "chain": "LKTLNLGSCVIATNLQEIRNGFSDIRGSVQAKDGNIDIRILRRTESLQDTKPANRCCLLRHLLRLYLDRVFKNYQTPDHYTLRKISSLANSFLTIKKDLRLCHAHMTCHCGEEAMKKYSQILSHFEKLEPQAAVVKALGELDILLQWMEETE"}, "B2": {"name": "IL-20 (human IL-20, mature polypeptide; preparation or host not specified) (ligand)", "chain": "B1 chain", "notes": "also called Zcyto10; IL-20 protein"}},
  "key": {"[1]": {"biological_target": "T1, IL-20RA/IL-20RB heterodimeric receptor (human), on cells (human, UniProt Q9UHF4 30-553; Q6UXL0 30-311)", "T1 sequence 1": "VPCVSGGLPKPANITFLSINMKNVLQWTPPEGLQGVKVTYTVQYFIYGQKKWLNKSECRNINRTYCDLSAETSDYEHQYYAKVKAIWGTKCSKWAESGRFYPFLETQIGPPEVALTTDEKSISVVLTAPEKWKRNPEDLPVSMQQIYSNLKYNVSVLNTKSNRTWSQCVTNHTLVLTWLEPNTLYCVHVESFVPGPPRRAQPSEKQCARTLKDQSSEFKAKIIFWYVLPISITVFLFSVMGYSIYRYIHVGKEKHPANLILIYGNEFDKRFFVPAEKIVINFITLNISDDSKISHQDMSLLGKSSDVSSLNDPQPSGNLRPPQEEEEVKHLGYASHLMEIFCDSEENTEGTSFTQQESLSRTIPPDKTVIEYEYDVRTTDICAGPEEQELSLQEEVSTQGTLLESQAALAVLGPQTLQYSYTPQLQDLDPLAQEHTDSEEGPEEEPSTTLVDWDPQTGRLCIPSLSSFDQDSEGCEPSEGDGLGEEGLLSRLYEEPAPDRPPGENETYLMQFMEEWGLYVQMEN", "T1 sequence 2": "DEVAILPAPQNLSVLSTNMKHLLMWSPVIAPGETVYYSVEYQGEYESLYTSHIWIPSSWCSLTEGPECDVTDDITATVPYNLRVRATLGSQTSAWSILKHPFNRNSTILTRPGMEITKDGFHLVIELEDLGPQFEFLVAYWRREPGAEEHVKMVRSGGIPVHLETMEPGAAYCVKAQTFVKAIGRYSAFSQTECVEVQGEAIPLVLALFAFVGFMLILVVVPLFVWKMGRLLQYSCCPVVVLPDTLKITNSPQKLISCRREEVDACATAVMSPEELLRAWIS", "experiment": "cell-based or functional assay"}, "[2]": {"biological_target": "T2, IL-20RB (human), on cells (human, UniProt Q6UXL0 30-311)", "T2 construct": "This id covers the subunit expressed alone on BHK or BaF3/KZ134 transfectants; It is also used for endogenous IL-20RB on THP-1 cells; also called DIRS1; pDIRS1", "T2 sequence": "T1 sequence 2", "experiment": "radiolabeled ligand binding on stably transfected BHK cells", "description": "(§1) The specificity and affinity of IL-20 for its receptor was determined using BHK cells stably transfected with IL-20RA, IL-20RB or both receptor subunits. […] Binding of ¹²⁵I-labeled IL-20 was eliminated in the presence of 100-fold excess of unlabeled IL-20 but not with 100-fold excess of the unrelated cytokine, IL-21."}, "[3]": {"biological_target": "T3, IL-20RA (human), on cells (human, UniProt Q9UHF4 30-553)", "T3 construct": "This id covers the subunit expressed alone on BHK or BaF3/KZ134 transfectants; It is also used for endogenous IL-20RA on human monocytic cells and in human lung tissue; also called ZcytoR7; IL-20RA only", "T3 sequence": "T1 sequence 1", "experiment": "radiolabeled ligand binding on stably transfected BHK cells", "description": "as §1"}, "[4]": {"biological_target": "T1, IL-20RA/IL-20RB heterodimeric receptor …", "experiment": "125I-IL-20 binding on BHK cells expressing IL-20RA and IL-20RB", "description": "as §1"}},
  "data": [
    {"binder": "B1", "values": [
      {"measurement": "Alamar Blue proliferation of BaF3/KZ134/IL-20RA/IL-20RB cells at 1 pM IL-20", "setting": "[1]", "value": 2, "unit": "fold over background"},
      {"measurement": "Alamar Blue proliferation of BaF3/KZ134/IL-20RA/IL-20RB cells at 1 nM IL-20", "setting": "[1]", "value": "~30", "unit": "fold over background"}
    ]},
    {"binder": "B2", "values": [
      {"measurement": "binding result", "setting": "[2]", "value": "no binding"},
      {"measurement": "binding result", "setting": "[3]", "value": "no binding"},
      {"measurement": "Kd", "setting": "[4]", "value": "~1.5", "unit": "nM"}
    ]}
  ]
}
